The text below walks through data of patent publication US20130022605A1.

This test addresses mouse TNFR1 on L929 cells (mouse) (UniProt P25118). As to the kind of experiment: cell-based or functional assay.

Chain of mouse TNFR1 on L929 cells (mouse) (P25118 30-454): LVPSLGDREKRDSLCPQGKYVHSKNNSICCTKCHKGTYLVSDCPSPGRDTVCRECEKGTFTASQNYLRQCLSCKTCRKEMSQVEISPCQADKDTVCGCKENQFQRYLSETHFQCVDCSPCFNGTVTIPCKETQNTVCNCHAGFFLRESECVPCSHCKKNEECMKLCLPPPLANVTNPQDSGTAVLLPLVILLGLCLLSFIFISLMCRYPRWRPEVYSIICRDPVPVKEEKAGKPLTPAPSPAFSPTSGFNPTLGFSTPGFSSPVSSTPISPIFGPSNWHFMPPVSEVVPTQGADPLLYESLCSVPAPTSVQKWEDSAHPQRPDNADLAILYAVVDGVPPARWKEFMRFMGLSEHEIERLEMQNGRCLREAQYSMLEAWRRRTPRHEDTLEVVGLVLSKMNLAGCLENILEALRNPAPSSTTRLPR

“anti-TNFR1 antibody AF-425-PB (R&D Systems)” had an ND50, L929 cytotoxicity without TNF-α (agonism) of 100 pM. Consider “anti-TNFR1 antibody MAB430 (R&D Systems)”, for which the ND50, L929 cytotoxicity without TNF-α (agonism) amounted to 10000 pM.
